Laboratory results published in patent US20060110801A1 (WISCONSIN ALUMNI RESEARCH FOUNDATION, published 2006).

Target: GST (UniProt P08515 1-218 = GST)
Assay: pull-down on glutathione sepharose, Western blot with anti-T7

GST, sequence (P08515 whole entry): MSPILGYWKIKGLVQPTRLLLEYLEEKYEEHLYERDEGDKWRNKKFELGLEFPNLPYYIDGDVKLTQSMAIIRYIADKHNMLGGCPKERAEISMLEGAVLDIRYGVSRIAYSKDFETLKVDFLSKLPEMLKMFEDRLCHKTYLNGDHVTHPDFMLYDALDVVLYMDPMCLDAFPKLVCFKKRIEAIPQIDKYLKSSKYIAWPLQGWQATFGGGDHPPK

B1: T7-ATR41-227 (fusion protein having a hexahistidine tag, a T7 tag, and amino acids 41 to 227 of ATR) (receptor)
chain: GGFDLYFILDKSGSVLHHWNEIYYFVEQLAHKFISPQLRMSFIVFSTRGTTLMKLTEDREQIRQGLEELQKVLPGGDTYMHEGFERASEQIYYENRQGYRTASVIIALTDGELHEDLFFYSEREANRSRDLGAIVYCVGVKDFNETQLARIADSKDHVFPVNDGFQALQGIIHSILKKSCIEILAAE
notes: also called the I domain; extracellular fragment of ATR
  binding result: no binding
